In IntAct's records for PubMed 23376919:

B1: Interleukin-1 receptor-associated kinase 3 (Mus musculus), Q8K4B2 (parent)
chain: MAGRCGARGALSPQLLLFDLPPALLGELCGILDSCDGPLGWRGLAERLSNSWLDVRHIEKYVNQGKSGTRELLWSWAQKNKTIGDLLEVLQDMGHQRAIHLIINYGVSWTPSVQTHHELPFPSFPPEVKHACRENDPGPLEPANVTVDNVLVPEHNEKGTLQKTPISFQSILEGTKHFHKDFLIGEGEIFEVYRVDIRNQAYAVKLFKQEKKMQLKKHWKRFLSELEVLLLFRHPHILELAAYFTETEKLCLVYPYMSNGTLFDRLQCTNGTTPLSWHVRISVLIGIAKAIQYLHNTQPCAVICGNVSSANILLDDQLQPKLTDFAAAHFRPNLEQQSSTINMTGGGRKHLWYMPEEYIRQGRLSVKTDVYSFGIVIMEVLTGCKVVLDDPKHVQLRDLLMELMEKRGLDSCLSFLDRKIPPCPRNFSAKLFSLAGRCVATKAKLRPTMDEVLSSLESTQPSLYFAEDPPTSLKSFRCPSPLFLDNVPSIPVEDDENQNNHSVPPKEVLGTDRVTQKTPFECSQSEVTFLGLDRNRGNRGSEADCNVPSSSHEECWSPELVAPSQDLSPTVISLGSSWEVPGHSYGSKPMEKRCSSGLFCSEHEQSKKQ
partner: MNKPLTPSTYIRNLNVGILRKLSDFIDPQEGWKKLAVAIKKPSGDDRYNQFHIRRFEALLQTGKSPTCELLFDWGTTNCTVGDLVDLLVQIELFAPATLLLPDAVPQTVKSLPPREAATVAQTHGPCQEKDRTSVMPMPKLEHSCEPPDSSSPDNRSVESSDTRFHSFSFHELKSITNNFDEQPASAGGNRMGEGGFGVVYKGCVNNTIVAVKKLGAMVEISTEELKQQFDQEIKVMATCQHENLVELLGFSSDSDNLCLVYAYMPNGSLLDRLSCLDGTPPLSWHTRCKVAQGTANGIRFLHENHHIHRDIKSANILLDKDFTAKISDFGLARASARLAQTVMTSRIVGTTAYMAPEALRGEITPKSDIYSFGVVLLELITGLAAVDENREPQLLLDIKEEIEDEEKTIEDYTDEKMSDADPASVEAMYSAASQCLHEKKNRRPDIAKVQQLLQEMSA
B2: Interleukin-1 receptor-associated kinase 4 (Mus musculus), Q8R4K2 (parent)
chain: B1 partner
partner: B1 chain
B3: Interleukin-1 receptor-associated kinase 3 (Mus musculus), Q8K4B2 (parent)
chain: B1 chain
partner: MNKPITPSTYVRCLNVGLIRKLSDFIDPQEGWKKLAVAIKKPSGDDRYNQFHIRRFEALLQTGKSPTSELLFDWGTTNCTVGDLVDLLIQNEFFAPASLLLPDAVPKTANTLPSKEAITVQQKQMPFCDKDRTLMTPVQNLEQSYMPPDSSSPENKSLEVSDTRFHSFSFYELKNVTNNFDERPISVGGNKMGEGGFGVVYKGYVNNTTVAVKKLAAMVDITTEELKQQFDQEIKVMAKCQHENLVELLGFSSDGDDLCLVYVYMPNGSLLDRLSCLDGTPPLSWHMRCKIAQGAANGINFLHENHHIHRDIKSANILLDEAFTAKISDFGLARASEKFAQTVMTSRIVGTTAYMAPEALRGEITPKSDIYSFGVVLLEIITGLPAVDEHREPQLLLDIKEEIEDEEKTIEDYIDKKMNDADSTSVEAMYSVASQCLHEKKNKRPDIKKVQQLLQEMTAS

Variants of: B1
Conditions: with irak4_mouse Irak4, Q8R4K2

Row | effect of a mutation on the interaction | Variant
1 | decreasing interaction | Q78G

Variants of: B1
Conditions: with irak4_mouse Irak4, Q8R4K2
Remark: another data set of the same source

Row | effect of a mutation on the interaction | Variant
2 | disrupting interaction | E71A;Q78G

Variants of: B1
Conditions: with irak4_mouse Irak4, Q8R4K2
Remark: another data set of the same source

Row | effect of a mutation on the interaction | Variant
3 | disrupting interaction | W74A

Variants of: B1
Conditions: with irak4_mouse Irak4, Q8R4K2
Remark: another data set of the same source

Row | effect of a mutation on the interaction | Variant
4 | decreasing interaction | E71A

Variants of: B2
Conditions: with irak3_mouse Irak3, Q8K4B2

Row | effect of a mutation on the interaction | Variant
5 | decreasing interaction | MNKPLTPSTYIRNLNVGILRKLSDDIDPQEGWKKLAVAIKKPSGDDRYNQFHIRRFEALLQTGKSPTCELLFDWGTTNCTVGDLVDLLVQIELFAPATLLLPDAVPQTVKSLPPREAATVAQTHGPCQEKDRTSVMPMPKLEHSCEPPDSSSPDNRSVESSDTRFHSFSFHELKSITNNFDEQPASAGGNRMGEGGFGVVYKGCVNNTIVAVKKLGAMVEISTEELKQQFDQEIKVMATCQHENLVELLGFSSDSDNLCLVYAYMPNGSLLDRLSCLDGTPPLSWHTRCKVAQGTANGIRFLHENHHIHRDIKSANILLDKDFTAKISDFGLARASARLAQTVMTSRIVGTTAYMAPEALRGEITPKSDIYSFGVVLLELITGLAAVDENREPQLLLDIKEEIEDEEKTIEDYTDEKMSDADPASVEAMYSAASQCLHEKKNRRPDIAKVQQLLQEMSA [F25D]

Variants of: B3
Conditions: with irak4_human IRAK4, Q9NWZ3

Row | effect of a mutation on the interaction | Variant
6 | disrupting interaction | W74A

Variants of: B3
Conditions: with irak4_human IRAK4, Q9NWZ3
Remark: another data set of the same source

Row | effect of a mutation on the interaction | Variant
7 | decreasing interaction | Q78G

Variants of: B3
Conditions: with irak4_human IRAK4, Q9NWZ3
Remark: another data set of the same source

Row | effect of a mutation on the interaction | Variant
8 | decreasing interaction | E71A;Q78G

Variants of: B3
Conditions: with irak4_human IRAK4, Q9NWZ3
Remark: another data set of the same source

Row | effect of a mutation on the interaction | Variant
9 | decreasing interaction | E71A
